Measured values published in US20140087995A1 (published 2014).
Numbered stars: 1 amine (or outer) side, 2 acyl side, 3 side chain; on linkers, the order of the positions; unused ones are H or OH. Bridge positions count the residues as written; N and C are the ends. Side chains are listed from the residue outwards. Ends that are not written are not given here. * marks the point of attachment. C20 diacid = O=C(O)CCCCCCCCCCCCCCCCCCC(=O)*; C18 diacid = O=C(O)CCCCCCCCCCCCCCCCC(=O)*; C16 diacid = O=C(O)CCCCCCCCCCCCCCC(=O)*; γGlu = O=C(O)[C@H](CCC(=O)[*:2])N[*:1]; C14 diacid = O=C(O)CCCCCCCCCCCCC(=O)*; AEEA = NCCOCCOCC(=O)O

T1: human calcitonin receptor (human, UniProt P30988 25-474)
T1 construct: whole, on cells; Assay used cell membranes, not intact cells; also called hCTR; hCT
T1 sequence (looked up): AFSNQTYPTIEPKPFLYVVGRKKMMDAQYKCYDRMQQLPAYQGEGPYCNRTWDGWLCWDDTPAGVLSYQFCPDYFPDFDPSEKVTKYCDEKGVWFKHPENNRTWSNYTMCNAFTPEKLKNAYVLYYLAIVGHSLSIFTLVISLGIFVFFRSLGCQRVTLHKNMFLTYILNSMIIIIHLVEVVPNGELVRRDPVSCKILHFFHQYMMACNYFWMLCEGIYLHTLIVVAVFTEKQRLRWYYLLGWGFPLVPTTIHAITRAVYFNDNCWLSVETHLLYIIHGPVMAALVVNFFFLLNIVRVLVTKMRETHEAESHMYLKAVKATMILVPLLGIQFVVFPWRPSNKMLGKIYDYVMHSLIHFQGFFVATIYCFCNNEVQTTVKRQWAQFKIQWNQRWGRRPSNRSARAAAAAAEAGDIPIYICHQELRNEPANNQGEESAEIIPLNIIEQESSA

T2: human amylin receptor (amylin 3(a) receptor: human calcitonin receptor with RAMP-3) (human, UniProt P30988 25-474; O60896 24-148)
T2 construct: whole, on cells; Assay used cell membranes of the Amylin 3(a)/CRE-luc BHK cells, not intact cells; also called hAmylin-R; hAmylinR
T2 sequence (looked up) 1: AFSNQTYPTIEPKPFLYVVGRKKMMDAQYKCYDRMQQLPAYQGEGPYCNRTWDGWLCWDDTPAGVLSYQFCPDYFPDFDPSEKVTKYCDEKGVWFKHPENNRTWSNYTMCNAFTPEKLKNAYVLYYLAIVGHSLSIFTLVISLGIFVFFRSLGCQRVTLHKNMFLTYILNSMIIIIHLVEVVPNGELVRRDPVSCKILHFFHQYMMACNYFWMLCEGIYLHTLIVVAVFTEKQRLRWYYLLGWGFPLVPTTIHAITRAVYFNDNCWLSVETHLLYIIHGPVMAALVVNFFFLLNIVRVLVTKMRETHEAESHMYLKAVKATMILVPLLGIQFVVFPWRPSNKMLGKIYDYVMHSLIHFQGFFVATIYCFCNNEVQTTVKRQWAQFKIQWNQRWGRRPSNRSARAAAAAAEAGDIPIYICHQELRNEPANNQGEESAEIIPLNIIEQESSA
T2 sequence (looked up) 2: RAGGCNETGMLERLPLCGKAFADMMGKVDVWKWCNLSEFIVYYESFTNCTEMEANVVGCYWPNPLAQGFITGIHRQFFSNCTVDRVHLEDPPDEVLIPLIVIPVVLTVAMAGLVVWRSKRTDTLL


Key:
[1] = molecular target: T1, human calcitonin receptor; experiment: SPA competition with 125I-calcitonin on membranes of BHK cells with human calcitonin receptor (Assay VII)
Summary of the method: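 BHK hCTR membranes 35 ng/μL + SPA beads 0.05 mg/well; buffer 50 mM Hepes pH 7.4, 1 mM CaCl2, 5 mM MgCl₂, 0.1% OA, 0.02% Tween20. 120 min, 25° C., shaking. Scintillation count; IC50 by one-site binding competition.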

[2] = molecular target: T2, human amylin receptor (amylin 3(a) …); experiment: SPA competition with 125I-rat amylin on membranes of BHK cells with human calcitonin receptor and RAMP-3 (Assay V)
Summary of the method: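 SPA beads + BHK amylin 3(a)/CRE-luc membranes, 35 ng/μL final; buffer 50 mM Hepes pH 7.4, 1 mM CaCl2, 5 mM MgCl₂, 0.1% OA, 0.02% Tween20. 120 min, 25° C, shaken; scintillation count. IC₅₀ by one-site binding competition fit, taken as receptor affinity.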

[3] = molecular target: T1, human calcitonin receptor; experiment: ratio IC50 hCTR / IC50 hAmylin-R (reference: human amylin receptor), SPA competition assays
Summary of the method: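 Membranes (35 ng/μL final) + SPA beads, 50 mM Hepes pH 7.4 buffer with 1 mM CaCl2, 5 mM MgCl₂, 0.1% OA, 0.02% Tween20; 120 min, 25° C, shaking; centrifuged, counted; IC₅₀ by one-site binding competition.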

Row | Binder | IC50 [1] [nM] | IC50 [2] [nM] | Ratio hCT/hAmylin binding [3]
1 | K([γGlu-C16 diacid])CNTATCATQRLANFLRHSSPNFGAIPSSTNVGHNTY-NH2 (disulfide 2-7; N-terminus assumed; SMILES CC[C@H](C)[C@H](NC(=O)[C@H](C)NC(=O)CNC(=O)[C@H](Cc1ccccc1)NC(=O)[C@H](CC(N)=O)NC(=O)[C@@H]1CCCN1C(=O)[C@H](CO)NC(=O)[C@H](CO)NC(=O)[C@H](Cc1c[nH]cn1)NC(=O)[C@H](CCCNC(=N)N)NC(=O)[C@H](CC(C)C)NC(=O)[C@H](Cc1ccccc1)NC(=O)[C@H](CC(N)=O)NC(=O)[C@H](C)NC(=O)[C@H](CC(C)C)NC(=O)[C@H](CCCNC(=N)N)NC(=O)[C@H](CCC(N)=O)NC(=O)[C@@H](NC(=O)[C@H](C)NC(=O)[C@@H]1CSSC[C@H](NC(=O)[C@@H](N)CCCCNC(=O)CC[C@H](NC(=O)CCCCCCCCCCCCCCC(=O)O)C(=O)O)C(=O)N[C@@H](CC(N)=O)C(=O)N[C@@H]([C@@H](C)O)C(=O)N[C@@H](C)C(=O)N[C@@H]([C@@H](C)O)C(=O)N1)[C@@H](C)O)C(=O)N1CCC[C@H]1C(=O)N[C@@H](CO)C(=O)N[C@@H](CO)C(=O)N[C@H](C(=O)N[C@@H](CC(N)=O)C(=O)N[C@H](C(=O)NCC(=O)N[C@@H](Cc1c[nH]cn1)C(=O)N[C@@H](CC(N)=O)C(=O)N[C@H](C(=O)N[C@@H](Cc1ccc(O)cc1)C(N)=O)[C@@H](C)O)C(C)C)[C@@H](C)O) [N^ε1-[(4S)-4-carboxy-4-(15-carboxypentadecanoylamino)butanoyl]-[Arg17,Pro21,Pro27,His34]-h-amylin] | 10.8 | 0.58 | 18.5
2 | K([γGlu-C14 diacid])CNTATCATQRLANFLRHSSPNFGAIPSSTNVGHNTY-NH2 (disulfide 2-7; N-terminus assumed; SMILES CC[C@H](C)[C@H](NC(=O)[C@H](C)NC(=O)CNC(=O)[C@H](Cc1ccccc1)NC(=O)[C@H](CC(N)=O)NC(=O)[C@@H]1CCCN1C(=O)[C@H](CO)NC(=O)[C@H](CO)NC(=O)[C@H](Cc1c[nH]cn1)NC(=O)[C@H](CCCNC(=N)N)NC(=O)[C@H](CC(C)C)NC(=O)[C@H](Cc1ccccc1)NC(=O)[C@H](CC(N)=O)NC(=O)[C@H](C)NC(=O)[C@H](CC(C)C)NC(=O)[C@H](CCCNC(=N)N)NC(=O)[C@H](CCC(N)=O)NC(=O)[C@@H](NC(=O)[C@H](C)NC(=O)[C@@H]1CSSC[C@H](NC(=O)[C@@H](N)CCCCNC(=O)CC[C@H](NC(=O)CCCCCCCCCCCCC(=O)O)C(=O)O)C(=O)N[C@@H](CC(N)=O)C(=O)N[C@@H]([C@@H](C)O)C(=O)N[C@@H](C)C(=O)N[C@@H]([C@@H](C)O)C(=O)N1)[C@@H](C)O)C(=O)N1CCC[C@H]1C(=O)N[C@@H](CO)C(=O)N[C@@H](CO)C(=O)N[C@H](C(=O)N[C@@H](CC(N)=O)C(=O)N[C@H](C(=O)NCC(=O)N[C@@H](Cc1c[nH]cn1)C(=O)N[C@@H](CC(N)=O)C(=O)N[C@H](C(=O)N[C@@H](Cc1ccc(O)cc1)C(N)=O)[C@@H](C)O)C(C)C)[C@@H](C)O) [N^ε1-[(4S)-4-carboxy-4-(13-carboxytridecanoylamino)butanoyl]-[Arg17,Pro21,Pro27,His34]-h-amylin] | 24.3 | 1.04 | 23.5
3 | K([AEEA-γGlu-C20 diacid])CNTATCATQRLATFLRHSSPNFGAIPSSTPVGSNTY-NH2 (disulfide 2-7; N-terminus assumed; SMILES CC[C@H](C)[C@H](NC(=O)[C@H](C)NC(=O)CNC(=O)[C@H](Cc1ccccc1)NC(=O)[C@H](CC(N)=O)NC(=O)[C@@H]1CCCN1C(=O)[C@H](CO)NC(=O)[C@H](CO)NC(=O)[C@H](Cc1c[nH]cn1)NC(=O)[C@H](CCCNC(=N)N)NC(=O)[C@H](CC(C)C)NC(=O)[C@H](Cc1ccccc1)NC(=O)[C@@H](NC(=O)[C@H](C)NC(=O)[C@H](CC(C)C)NC(=O)[C@H](CCCNC(=N)N)NC(=O)[C@H](CCC(N)=O)NC(=O)[C@@H](NC(=O)[C@H](C)NC(=O)[C@@H]1CSSC[C@H](NC(=O)[C@@H](N)CCCCNC(=O)COCCOCCNC(=O)CC[C@H](NC(=O)CCCCCCCCCCCCCCCCCCC(=O)O)C(=O)O)C(=O)N[C@@H](CC(N)=O)C(=O)N[C@@H]([C@@H](C)O)C(=O)N[C@@H](C)C(=O)N[C@@H]([C@@H](C)O)C(=O)N1)[C@@H](C)O)[C@@H](C)O)C(=O)N1CCC[C@H]1C(=O)N[C@@H](CO)C(=O)N[C@@H](CO)C(=O)N[C@H](C(=O)N1CCC[C@H]1C(=O)N[C@H](C(=O)NCC(=O)N[C@@H](CO)C(=O)N[C@@H](CC(N)=O)C(=O)N[C@H](C(=O)N[C@@H](Cc1ccc(O)cc1)C(N)=O)[C@@H](C)O)C(C)C)[C@@H](C)O, also called compound 75) | 60.9 | 0.666 | 91.4

The remaining binders from weak to strong by IC50 [1], led by results:

Row | IC50 [1] [nM] | IC50 [2] [nM] | Ratio hCT/hAmylin binding [3] | Binder
4 | 22.7 | 0.382 | 59.4 | K([γGlu-C18 diacid])CNTATCATQRLANFLRHSSPNFGAIPSSTNVGHNTY-NH2 (disulfide 2-7; N-terminus assumed; SMILES CC[C@H](C)[C@H](NC(=O)[C@H](C)NC(=O)CNC(=O)[C@H](Cc1ccccc1)NC(=O)[C@H](CC(N)=O)NC(=O)[C@@H]1CCCN1C(=O)[C@H](CO)NC(=O)[C@H](CO)NC(=O)[C@H](Cc1c[nH]cn1)NC(=O)[C@H](CCCNC(=N)N)NC(=O)[C@H](CC(C)C)NC(=O)[C@H](Cc1ccccc1)NC(=O)[C@H](CC(N)=O)NC(=O)[C@H](C)NC(=O)[C@H](CC(C)C)NC(=O)[C@H](CCCNC(=N)N)NC(=O)[C@H](CCC(N)=O)NC(=O)[C@@H](NC(=O)[C@H](C)NC(=O)[C@@H]1CSSC[C@H](NC(=O)[C@@H](N)CCCCNC(=O)CC[C@H](NC(=O)CCCCCCCCCCCCCCCCC(=O)O)C(=O)O)C(=O)N[C@@H](CC(N)=O)C(=O)N[C@@H]([C@@H](C)O)C(=O)N[C@@H](C)C(=O)N[C@@H]([C@@H](C)O)C(=O)N1)[C@@H](C)O)C(=O)N1CCC[C@H]1C(=O)N[C@@H](CO)C(=O)N[C@@H](CO)C(=O)N[C@H](C(=O)N[C@@H](CC(N)=O)C(=O)N[C@H](C(=O)NCC(=O)N[C@@H](Cc1c[nH]cn1)C(=O)N[C@@H](CC(N)=O)C(=O)N[C@H](C(=O)N[C@@H](Cc1ccc(O)cc1)C(N)=O)[C@@H](C)O)C(C)C)[C@@H](C)O) [N^ε1-[(4S)-4-carboxy-4-(17-carboxyheptadecanoylamino)butanoyl]-[Arg17,Pro21,Pro27,His34]-h-amylin]
5 | 19.8 | 0.29 | 68.1 | K([AEEA-γGlu-C20 diacid])CNTATCATQRLAHFLRHSSPNFGAIPSSTNVGHNTY-NH2 (disulfide 2-7; N-terminus assumed; SMILES CC[C@H](C)[C@H](NC(=O)[C@H](C)NC(=O)CNC(=O)[C@H](Cc1ccccc1)NC(=O)[C@H](CC(N)=O)NC(=O)[C@@H]1CCCN1C(=O)[C@H](CO)NC(=O)[C@H](CO)NC(=O)[C@H](Cc1c[nH]cn1)NC(=O)[C@H](CCCNC(=N)N)NC(=O)[C@H](CC(C)C)NC(=O)[C@H](Cc1ccccc1)NC(=O)[C@H](Cc1c[nH]cn1)NC(=O)[C@H](C)NC(=O)[C@H](CC(C)C)NC(=O)[C@H](CCCNC(=N)N)NC(=O)[C@H](CCC(N)=O)NC(=O)[C@@H](NC(=O)[C@H](C)NC(=O)[C@@H]1CSSC[C@H](NC(=O)[C@@H](N)CCCCNC(=O)COCCOCCNC(=O)CC[C@H](NC(=O)CCCCCCCCCCCCCCCCCCC(=O)O)C(=O)O)C(=O)N[C@@H](CC(N)=O)C(=O)N[C@@H]([C@@H](C)O)C(=O)N[C@@H](C)C(=O)N[C@@H]([C@@H](C)O)C(=O)N1)[C@@H](C)O)C(=O)N1CCC[C@H]1C(=O)N[C@@H](CO)C(=O)N[C@@H](CO)C(=O)N[C@H](C(=O)N[C@@H](CC(N)=O)C(=O)N[C@H](C(=O)NCC(=O)N[C@@H](Cc1c[nH]cn1)C(=O)N[C@@H](CC(N)=O)C(=O)N[C@H](C(=O)N[C@@H](Cc1ccc(O)cc1)C(N)=O)[C@@H](C)O)C(C)C)[C@@H](C)O, also called compound 80)
